In a protein production outcome set (Wang et al. 2014):

Assay: label from the status in PepcDB records

| Sequence | protein production |
| --- | --- |
| MDQESNATSQDILKQHAAHYESDMGGLPEALVQLAEYAPETFDAYSRMRTTMLKSEADGAKLPLKYKHLILVVLDAIRDEPIGIVNHTRAAMNAGLSVDELIEGILLGIIVYGMPAWGKTGRKAVTFAVEFEKELAGKRT | not failed |
| MDKAATPWLRYLEELRPHLQGRDHRGRKGSLRWLEALMAERGGRAGTVRNILYKDLGSPEEKERLYRILADLYREAGLKPPPPPAELFLKSARKVLGRDKRRIFRHFLRELEAGRRPQVVVVGGAATGKGVLLSALRQALAAFPGKTPFVLNLGGELAQALIPLAEELGVEAETLLSQLSPTQPYILQGALQQEFLAALAQALNRAGRPLLLRAEAQGTLEGLPLRGPDGGQRGLSAWLEPFLRSLEIPYLAALTEPPPTLPYQPLSPPSREEARRFVRERLPHLPPERLEALVNQAGRNFGELSRLVLLEAAKHDPETPLQDDPALRPLLEALAAFSPEADPAFPAALLERALNRPLERLSQAEKALLEWVGDGLVRPSLRSLLPQEAPRELHRLALEFFPRENLFRRLYHARKAGERRILLDLLTEDPARLALLPGLWQEARSWPKEDREALAAALVRYRAVLGQYAHPEVEEALALLAQAEDPRLRASARIKAAEAKADAGLYKEAEALLPPEEEFPLLDETARAEGLLVRAAVERWKGDYEKAARYAERAAELSVAPFLKDRVQLWRGLVAKDLGRYEEALTALAQVGHDPLLLGRARYQMGDLLMRLGSPEARARMEEGLKALEEAGAPQDEVARVRARYATLLRRLGLYPEAEAAIRRALEEALDPFTRARVESEAGILQAAQGRPLEALALLSRAEAYFRTTGERPKEARYRHLRTLFRLAAAYLLLETGTPYRPPLLGGLKAPEAERLLWDLLAKIPEEATDRYTALRLDAESLLALLLPPKEARERLRPFLGLANPYLRAQARLGYAEALLREGAYGEALAQTVALPPLLDPGLKAQAKATEVLALLALGEEEAAWQKLVEAKQSGLPEPFRLQLGRAVGRAHPGLAARLPPTPLAPPEALGLHLANPD | failed |
| MMEERAAAAVASAASSCRPLGSGTAPNPTAAAPASSPAPGPGPVGKGGGGGGSPGPTAGPEPLSLPGILHFIQHEWARFEAEKARWEAERAELQAQVAFLQGERKGQENLKTDLVRRIKMLEYALKQERAKYHKLKFGTDLNQGEKKTDLSEQVSNGPVESVTLENSPLVWKEGRQLLRQYLEEVGYTDTILDMRSKRVRSLLGRSLELNGAGEPVEGAPRASPGPGGLSGGESLLVKQIEEQIKRNAAGKDGKERLGGSVLEQIPFLQNCEDEDSDEDDELDSVQHKKQRVRLPSKALVPEMEDEDEEDDSEDAINEFDFLGSGEDGEGSPDPRRCTSEGNPHELESRRVKLQGILADLRDVDGLPPKVTVPPPGTPQPRPHEGSFGFSSDVFIMDTIGGGEVSLGDLADLTVTNDNDLSCDLSDSKDAFKKTWNPKFTLRSHYDGIRSLAFHHSQSALLTASEDGTLKLWNLQKAVTAKKNAALDVEPIHAFRAHRGPVLAVTMGSNSEYCYSGGADARIHSWKIPDLNMDPYDGYDPSVLSHVLEGHGDAVWGLAFSPTSQRLASCSADGTVRIWDPSSSGPSCLCTFPMDGEHGIPTSVAFTSTEPAHVVASFRSGDTVLYDLEAGSALLTLESRGSSGPAQINQVVSHPSQPLTITAHDDRGIRFLDNRTGKSVHSMVAHLDAVTCLAVDPNGVFLMSGSHDCSLRLWSLDNKTCVQEITAHRKKHEEAIHAVACHPSKALIASAGADALAKVFV | failed |
| MAALSGVFVWDEERIQEEELQRSINEMKRLEEMSNIFQSSGVENYPPEPKSPAGGNEKSKDKEEPWEMVMDKKHFKLWRRPITGTHLYQYRVFGTYTDVTPRQFFNVQLDTEYRKKWDALVIKLEVIERDAVSGSEVLHWVTHFPYPMYSRDYVYVRRYSVDQENNVMVLVSRAVEHPSVPESPEFVRVRSYESQMVIRPHKSFDENGFDYLLTYSDNPQTVFPRYCVSWMVSSGMPDFLEKLHMATLKAKNMEIKVKDYISAKPLEMSSEAKATAPSPERKNEGSCGPARIEYA | failed |
| MRSPYLIGVFLAAGKSRRMGQNKLALPLKGENIGSLSLKTALSSRLDHVLVVERTEHASLEWIGAPYHAPPFQKRWSLHVCQDAEKGQGHSVSSGVRKAESMGADGIVILLADQPQLSVDHLNALVALAPESFAVSSFLGAFTPPIYFSSTCFPYVKGLKGDEGARRLLKSGQLGAGAVLEAKDSGELDDIDTPRGILEHHHHHH | not failed |
